# Reference: patent US20180371087A1 (published 2018)
# T1: human LAG-3 (Lymphocyte Activation Gene-3), native or transduced, on the cell surface (UniProt P18627 23-525)
# T1 chain: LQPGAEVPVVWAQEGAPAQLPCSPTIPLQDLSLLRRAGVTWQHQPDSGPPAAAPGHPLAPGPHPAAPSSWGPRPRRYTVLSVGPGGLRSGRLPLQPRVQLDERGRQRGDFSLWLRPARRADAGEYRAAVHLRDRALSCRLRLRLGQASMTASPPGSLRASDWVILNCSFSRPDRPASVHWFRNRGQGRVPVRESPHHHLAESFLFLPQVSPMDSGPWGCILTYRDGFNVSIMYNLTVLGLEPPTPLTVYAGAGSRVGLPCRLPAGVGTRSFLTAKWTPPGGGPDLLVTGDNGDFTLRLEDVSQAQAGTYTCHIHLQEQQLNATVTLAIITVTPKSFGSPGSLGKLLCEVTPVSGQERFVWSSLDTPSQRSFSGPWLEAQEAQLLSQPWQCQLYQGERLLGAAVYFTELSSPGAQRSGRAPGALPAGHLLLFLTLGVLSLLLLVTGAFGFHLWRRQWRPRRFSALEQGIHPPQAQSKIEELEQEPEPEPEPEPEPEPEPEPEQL
# Tests used:
# [1] = target: T1, human LAG-3 (Lymphocyte Activation …); assay: FACS binding; activated human CD4+ T cells
# D1D4 construct = assay: SPR (Biacore)
EC50 [1] [nM],Kd (D1D4 construct) [nM],Binder
0.33,–,"LAG3.7-G4P (antibody, V domains shown) VH: QVQLQQWGAGLLKPSETLSLTCAVYGGSFSDYYWNWIRQPPGKGLEWIGEINHGGGTNSNPSLKSRVTLSLDTSKNQFSLKLRSVTAADTAVYYCAFGYSDYEYNWFDPWGQGTLVTVSS VL: EIVLTQSPATLSLSPGERATLSCRASQSISSYLAWYQQKPGQAPRLLIYDASNRATGIPARFSGSGSGTDFTLTISSLEPEDFAVYYCQQRSNWPLTFGQGTNLEIK"
–,0.3,"LAG3.8 (antibody, V domains shown) VH: QVQLQQWGAGLLKPSETLSLTCAVYGGSFSDYYWNWIRQPPGKGLEWIGEINHIGNTNSNPSLKSRVTLSLDTSKNQFSLKLRSVTAADTAVYYCAFGYSDYEYNWFDPWGQGTLVTVSS VL: EIVLTQSPATLSLSPGERATLSCRASQSISSYLAWYQQKPGQAPRLLIYDASNRATGIPARFSGSGSGTDFTLTISSLEPEDFAVYYCQQRSNWPLTFGQGTNLEIKR"
0.19,–,"LAG3.8 antibody variant of LAG3.1 (antibody, V domains shown) VH: QVQLQQWGAGLLKPSETLSLTCAVYGGSFSDYYWNWIRQPPGKGLEWIGEINHIGNTNSNPSLKSRVTLSLDTSKNQFSLKLRSVTAADTAVYYCAFGYSDYEYNWFDPWGQGTLVTVSS VL: EIVLTQSPATLSLSPGERATLSCRASQSISSYLAWYQQKPGQAPRLLIYDASNRATGIPARFSGSGSGTDFTLTISSLEPEDFAVYYCQQRSNWPLTFGQGTNLEIKR"
